{
  "source": "paper PMC4380549",
  "target": "FGFR3 TM-JM-YFP/mCherry (human)",
  "experiment": "FRET or BRET",
  "data": [
    {"substance": "FGFR3 TM-JM-YFP/mCherry (domain or fragment)", "values": [
      {"measurement": "percent dimer", "value": 100, "unit": "%"}
    ]}
  ]
}
